In PMC3552960, “Constitutively Active CCR5 Chemokine Receptors Differ in Mediating HIV Envelope-dependent Fusion” (PLoS ONE, 2013) one finds IC50 data, which are given here for 1 molecule.

Holding throughout (assay): radioligand binding
Details in all cases: one partner purified

The target in test [1] is T1, CCR5 Thr^2.56(82)Pro mutant receptor (human, UniProt P51681 1-352, Thr^2.56(82)Pro).
T1 construct: also called T^2.69(82)P; source: HOS-CD4-Luc, transiently transfected, on cells (fusion)
T1 sequence: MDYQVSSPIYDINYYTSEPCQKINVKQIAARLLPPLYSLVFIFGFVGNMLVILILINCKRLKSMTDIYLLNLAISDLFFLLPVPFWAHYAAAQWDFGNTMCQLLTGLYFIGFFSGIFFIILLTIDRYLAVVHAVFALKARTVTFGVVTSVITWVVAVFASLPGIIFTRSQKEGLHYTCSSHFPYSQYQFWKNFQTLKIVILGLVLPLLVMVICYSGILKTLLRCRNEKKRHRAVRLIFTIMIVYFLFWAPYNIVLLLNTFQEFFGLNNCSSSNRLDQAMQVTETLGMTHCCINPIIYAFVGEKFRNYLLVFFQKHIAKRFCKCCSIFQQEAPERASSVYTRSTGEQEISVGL

Test [2] addresses T2, wild type human CCR5 chemokine receptor (human, UniProt P51681 1-352).
T2 construct: source: HOS-CD4-Luc, transiently transfected, on cells (fusion)

The target of test [3] is T3, CCR5 Thr^2.56(82)Pro/Arg^6.32(225)Gln double-mutant receptor (human, UniProt P51681 1-352, Thr^2.56(82)Pro | Arg^6.32(225)Gln).
T3 construct: also called T^2.56(82)P/R^6.32(225)Q; T^2.69(82)P/R^6.32(225)Q; source: HOS-CD4-Luc, transiently transfected, on cells (fusion)
T3 sequence: T1 sequence with R225Q

For test [4], the target named is T4, CCR5 Thr^2.56(82)Lys/Arg^6.32(225)Gln double-mutant receptor (human, UniProt P51681 1-352, Thr^2.56(82)Lys | Arg^6.32(225)Gln).
T4 construct: also called T^2.56(82)K/R^6.32(225)Q; T^2.69(82)K/R^6.32(225)Q; source: HOS-CD4-Luc, transiently transfected, on cells (fusion)
T4 sequence: T1 sequence with P82K, R225Q

Numbering of substitutions follows the chain as printed.

B1: macrophage inflammatory protein 1β (MIP-1β, CCL4), recombinant human, unlabelled (ligand)
chain: APMGSDPPTACCFSYTARKLPRNFVVDYYETSSLCSQPAVVFQTKRSKQVCADPSESWVQEYVYDLELN
notes: also called unlabelled MIP-1β; source: bought: Peprotec (Rocky Hill, NJ)
On to B1, for which the IC50 in test [1] was determined as 31.9 nM; in test [2] it was 32.6 nM; in test [3], 30.6 nM; in test [4] it was 20.7 nM.

For orientation: IC50 means the concentration at which inhibition is half-maximal. Read a high IC50 as lower potency.
